In patent publication US20260185137A1, “FRET Active E2-UBL Conjugates and Uses Thereof” (Board of Regents, The University of Texas System, priority 2021, published 2026):

How the values were obtained:
UBE2N/V2-Ub conjugate = target: T1, UBE2N/V2-Ub conjugate (Homo sapiens, UniProt P61088); test: FRET ubiquitin discharge assay, UBE2N/V2-Ub conjugate; assay type: biochemical; conditions: per RING monomer; room temperature
T1 construct: made in house; host or cells: bacteria
Description: To evaluate contributions of distinct RING oligomeric states to TRIM5α autoubiquitination we investigated the catalytic activity of the RING constructs. E3 ubiquitin ligases catalyze the transfer of ubiquitin from the high-energy thioester-linked E2-Ub conjugates onto an amine group of the substrate. One of the challenges in the mechanistic studies of E3 ligases is the difficulty of measuring rates of chemical transformations catalyzed by E3 ligases with sufficient precision. In this study we developed a FRET-based ubiquitin discharge assay that allows continuous, real-time measurement of E3-catalyzed ubiquitin release from E2-Ub conjugates present at nanomolar concentrations in multiple samples in parallel using a fluorescence plate reader (FIG. 3A). […] FRET signals of the E2-Ub conjugates were recorded as a function of time following addition of different RING constructs using AF488 excitation (485/20 nm) and AF594 emission (645/40 nm) bandpass filters. We observed that more than 40% of the total fluorescence signal decayed in a RING-dependent fashion and could, therefore, be attributed to the FRET signal of the conjugate. The outstanding sensitivity, signal-to-noise and throughput of the FRET decay measurements enabled robust and accurate quantification of ubiquitin discharge. […]

TRIM5α RING domain = target: T2, TRIM5α RING domain (Macaca mulatta, UniProt Q0PF16); test: 15N HSQC NMR spectroscopy of RING constructs (dimer-monomer exchange); design: species or system rhesus monkey; conditions: NMR time scale, 298K
T2 construct: The R1 constructs encompass residues 2-90 of rhesus monkey TRIM5α; 6His (N, cleaved yes); GB1 solubility tag (N, cleaved yes); made in house; host or cells: bacteria
Method: We then collected series of ^15N HSQC spectra by gradually decreasing protein concentration of the R1-WT sample from […] to 10 μM. As the concentration of the sample was lowered one set of peaks became progressively weaker whereas a new set of peaks appeared and became dominant (FIG. 2A and FIG. 2B). […] The findings confirmed that the R1-WT construct exists in a dimer-monomer equilibrium and that the two distinct sets of NMR signals present at high and low concentrations correspond to the dimeric and monomeric states of the protein, respectively.
NMR spectroscopy. All NMR experiments were performed in 50 mM Sodium Phosphate (pH 7.5), 150 mM NaCl, 1 mM TCEP, 10% (v/v) D2O, 0.04% (w/v) NaN3, and the data collected at 298K on a Bruker Avance 700-MHz spectrometer equipped with a cryoprobe. Backbone assignments were carried out using standard TROSY triple resonance NMR experiments (HNCO, HN(CA)CO, HN(CO)CA, HNCA, HNCACB, and HN(CO)CACB). Protein concentrations for each experiment are shown in the corresponding figures or noted in figure legends. The NMR data were processed using NMRPipe and spectra evaluated using NMRFAM-Sparky.

T1 sequence (P61088 whole entry, other chains not shown): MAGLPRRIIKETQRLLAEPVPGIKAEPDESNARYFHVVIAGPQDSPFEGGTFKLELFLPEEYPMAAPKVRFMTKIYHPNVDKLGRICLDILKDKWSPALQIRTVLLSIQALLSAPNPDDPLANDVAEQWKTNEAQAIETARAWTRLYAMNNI
T1 sequence (Q15819 whole entry partner, other chains not shown): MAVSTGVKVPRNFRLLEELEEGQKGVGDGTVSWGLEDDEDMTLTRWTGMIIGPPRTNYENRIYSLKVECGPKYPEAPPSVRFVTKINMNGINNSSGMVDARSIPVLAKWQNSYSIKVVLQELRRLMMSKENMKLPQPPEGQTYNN

| dimer-monomer exchange rate (TRIM5α RING domain) [Hz] | Molecule | E3 activity (kcat/Km, initial slopes of Michaelis-Menten curves), ubiquitin discharge from UBE2N/V2-Ub conjugate (UBE2N/V2-Ub conjugate) |
| --- | --- | --- |
|  | R2-WT: tandem RING dimer; R82 of first RING linked to A2 of second through Gly-Ser linker (protein) ASGILLNVKEEVTCPICLELLTEPLSLHCGHSFCQACITANHKKSMLYKEGERSCPVCRISYQPENIQPNRHVANIVEKLRGSASGILLNVKEEVTCPICLELLTEPLSLHCGHSFCQACITANHKKSMLYKEGERSCPVCRISYQPENIQPNRHVANIVEKLREVKLSPEEGQ | significantly higher than that of the R1-WT |
| < 10 | R1-WT: isolated RING monomer construct, residues 2-89 of the rhesus TRIM5α (protein) ASGILLNVKEEVTCPICLELLTEPLSLHCGHSFCQACITANHKKSMLYKEGERSCPVCRISYQPENIQPNRHVANIVEKLREVKLSPEE |  |
